The values that follow come from PMC11984735, “Dynamics of the adhesion complex of the human pathogens Mycoplasma pneumoniae and Mycoplasma genitalium” (PLOS Pathogens, 2025).

For the test, the target named is T1, P1 adhesin ectodomain (residues Thr29-Asp1521), Mycoplasma pneumoniae (M. pneumoniae, UniProt P11311).
T1 construct: Adhesin P1 of Mycoplasma pneumoniae, gene MPN_141 (synthetic clone, Genscript), residues 29-1521; also called P1 (29-1521); whole P1 ectodomain; source: E. coli B834 (DE3), purified (HisTrap, Superdex 200)
T1 sequence (P11311 29-1521): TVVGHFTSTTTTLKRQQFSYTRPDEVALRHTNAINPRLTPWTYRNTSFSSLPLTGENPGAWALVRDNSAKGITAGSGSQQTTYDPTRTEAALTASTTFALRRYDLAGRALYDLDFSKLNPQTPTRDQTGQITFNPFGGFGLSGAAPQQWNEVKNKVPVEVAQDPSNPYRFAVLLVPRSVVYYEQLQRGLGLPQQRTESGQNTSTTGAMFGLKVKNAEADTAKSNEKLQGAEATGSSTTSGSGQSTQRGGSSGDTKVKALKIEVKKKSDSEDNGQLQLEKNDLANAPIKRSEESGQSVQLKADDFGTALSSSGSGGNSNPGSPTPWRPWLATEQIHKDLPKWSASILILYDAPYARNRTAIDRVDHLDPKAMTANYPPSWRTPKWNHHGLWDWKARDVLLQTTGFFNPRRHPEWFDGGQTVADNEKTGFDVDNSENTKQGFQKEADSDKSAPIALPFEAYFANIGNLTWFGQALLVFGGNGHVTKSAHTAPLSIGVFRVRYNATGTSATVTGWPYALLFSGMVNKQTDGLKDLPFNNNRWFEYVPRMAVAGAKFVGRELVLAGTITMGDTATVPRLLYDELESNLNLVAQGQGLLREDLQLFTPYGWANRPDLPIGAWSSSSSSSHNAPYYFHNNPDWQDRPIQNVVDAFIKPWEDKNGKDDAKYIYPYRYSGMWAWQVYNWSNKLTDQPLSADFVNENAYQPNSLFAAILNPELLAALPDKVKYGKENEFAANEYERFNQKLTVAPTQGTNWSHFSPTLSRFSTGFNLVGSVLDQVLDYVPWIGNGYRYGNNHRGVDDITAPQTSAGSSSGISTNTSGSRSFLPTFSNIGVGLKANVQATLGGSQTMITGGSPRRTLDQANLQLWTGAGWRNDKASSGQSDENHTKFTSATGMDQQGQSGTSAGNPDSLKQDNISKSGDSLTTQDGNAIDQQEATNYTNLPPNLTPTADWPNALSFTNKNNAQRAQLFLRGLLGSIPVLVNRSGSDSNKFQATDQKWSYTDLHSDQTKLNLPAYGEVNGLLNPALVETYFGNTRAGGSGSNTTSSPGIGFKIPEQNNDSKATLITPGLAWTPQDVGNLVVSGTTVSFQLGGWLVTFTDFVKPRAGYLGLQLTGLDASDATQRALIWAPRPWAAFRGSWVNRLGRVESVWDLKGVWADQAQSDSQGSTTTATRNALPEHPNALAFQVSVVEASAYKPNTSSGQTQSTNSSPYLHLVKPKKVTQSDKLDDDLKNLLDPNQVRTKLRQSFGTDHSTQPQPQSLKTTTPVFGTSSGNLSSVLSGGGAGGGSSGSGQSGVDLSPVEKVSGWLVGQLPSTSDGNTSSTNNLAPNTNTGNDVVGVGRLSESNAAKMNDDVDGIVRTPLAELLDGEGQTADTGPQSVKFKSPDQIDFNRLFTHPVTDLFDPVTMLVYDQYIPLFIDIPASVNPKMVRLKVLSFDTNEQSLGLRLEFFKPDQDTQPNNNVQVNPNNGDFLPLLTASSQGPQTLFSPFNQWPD
The experiment in a line: SEC-MALS; proteins mixed in solution (Fab and P1 ectodomain in equimolecular amounts; Mab with C-domain constructs); Superdex 200 10/300 GL with MALS and refractive index detectors. To be noted: both partners purified. Background: SEC sorts molecules by how far they enter the pores of the column.

B1: Fab fragment of monoclonal antibody P1/MCA4, with light chain L1 (Fab, V domains shown)
VH: EVQLQQSGPELVKPGTSMKISCKASGYSFTGYTMNWVKQSHGKSLEWIGLINPYNGGTNYNQKFRGTATLTVDKSSSTAYMELLSLTSEDSAVYYCARSNYAYDLLMDYWGQGTSVTVSS
VL: DVLMTQTPLSLPVSLGDQASISCRFSQTIVHSNGATYLEWYLQRPGQSPKLLIYKVSNRFSGVPDRFSGSGSGTDFTLKISRVEAEDLGVYYCFQGSHVPWTFGGGTKLEIK
notes: LC600310 by the order of listing; here the papain fragment of the heavy chain; modelled in PDB 8ROR; light chain L1, the one seen in the cryo-EM map; The Fab preparation is a mixture of two Fabs with one heavy chain and two different light chains (roughly 70% for the most abundant); this molecule is the one with L1; also called Fab(P1/MCA4); P1/MCA4 Fab; source: papain digestion of monoclonal …
For B1, the binding result is “binds”.

B2: Fab fragment of monoclonal antibody P1/MCA4, with the second light chain (not L1) (Fab, V domains shown)
VH: EVQLQQSGPELVKPGTSMKISCKASGYSFTGYTMNWVKQSHGKSLEWIGLINPYNGGTNYNQKFRGTATLTVDKSSSTAYMELLSLTSEDSAVYYCARSNYAYDLLMDYWGQGTSVTVSS
VL: DVVMTQTPLTLSVTIGQPASISCKSSQSLLDSDGKTYLNCFLQRPGQSPNRLIYLVSRLDSGVPDRFTGSGSGTDFTLKISRVEAEDLGVYYCCQVTQWTFGGGTKLEIK
notes: LC600310 by the order of listing; papain fragment; the second of the two light chains found in P1/MCA4 (not L1); Present in the same Fab preparation as m1; also called Fab(P1/MCA4); P1/MCA4 Fab; source: papain digestion of monoclonal antibody P1/MCA4 (hybridoma), purified (HiTrap Protein G, Superdex 75)
For B2, the binding result is listed as “binds”.
